From publication PMC10397247

What was measured:
Assay in all cases: two-hybrid library CCNG1;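 also: natural log of median RNA to DNA barcode read ratio; higher means stronger binding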
4H1831-bN = biological target: T1, 4H1831-bN
T1 chain: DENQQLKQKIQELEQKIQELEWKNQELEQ

4H3427-bN = biological target: T2, 4H3427-bN
T2 chain: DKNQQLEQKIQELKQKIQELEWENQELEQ

4H4073-bN = biological target: T3, 4H4073-bN
T3 chain: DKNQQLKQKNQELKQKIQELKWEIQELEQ

4H780-bN = biological target: T4, 4H780-bN
T4 chain: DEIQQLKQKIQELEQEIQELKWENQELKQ

4H457-bN = biological target: T5, 4H457-bN
T5 chain: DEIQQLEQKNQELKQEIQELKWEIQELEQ

4H968-bN = biological target: T6, 4H968-bN
T6 chain: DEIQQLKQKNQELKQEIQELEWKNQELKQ

4H170-bN = biological target: T7, 4H170-bN
T7 chain: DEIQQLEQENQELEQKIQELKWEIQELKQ

4H2586-bN = biological target: T8, 4H2586-bN
T8 chain: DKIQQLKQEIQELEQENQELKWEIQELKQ

4H683-bN = biological target: T9, 4H683-bN
T9 chain: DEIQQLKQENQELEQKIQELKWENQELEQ

4H918-bN = biological target: T10, 4H918-bN
T10 chain: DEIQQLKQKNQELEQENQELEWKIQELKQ

4H346-bN = biological target: T11, 4H346-bN
T11 chain: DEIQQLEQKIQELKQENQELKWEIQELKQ

4H3926-bN = biological target: T12, 4H3926-bN
T12 chain: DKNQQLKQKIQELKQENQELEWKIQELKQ

4H797-bN = biological target: T13, 4H797-bN
T13 chain: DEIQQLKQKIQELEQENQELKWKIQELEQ

4H3010-bN = biological target: T14, 4H3010-bN
T14 chain: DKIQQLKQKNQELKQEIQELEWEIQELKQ

4H2702-bN = biological target: T15, 4H2702-bN
T15 chain: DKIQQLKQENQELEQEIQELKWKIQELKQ

4H2627-bN = biological target: T16, 4H2627-bN
T16 chain: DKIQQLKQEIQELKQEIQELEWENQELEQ

4H2673-bN = biological target: T17, 4H2673-bN
T17 chain: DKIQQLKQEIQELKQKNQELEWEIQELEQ

4H855-bN = biological target: T18, 4H855-bN
T18 chain: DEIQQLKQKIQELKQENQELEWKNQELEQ

4H754-bN = biological target: T19, 4H754-bN
T19 chain: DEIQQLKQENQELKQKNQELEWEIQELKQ

4H953-bN = biological target: T20, 4H953-bN
T20 chain: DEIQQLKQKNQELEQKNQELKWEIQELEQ

4H575-bN = biological target: T21, 4H575-bN
T21 chain: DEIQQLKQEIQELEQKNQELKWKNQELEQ

4H3112-bN = biological target: T22, 4H3112-bN
T22 chain: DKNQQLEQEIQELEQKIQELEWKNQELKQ

4H2944-bH = biological target: T23, 4H2944-bH
T23 chain: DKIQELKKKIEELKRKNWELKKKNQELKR

4H342-bH = biological target: T24, 4H342-bH
T24 chain: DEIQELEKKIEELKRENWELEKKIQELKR

4H48-bH = biological target: T25, 4H48-bH
T25 chain: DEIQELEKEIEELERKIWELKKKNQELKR

4H491-bH = biological target: T26, 4H491-bH
T26 chain: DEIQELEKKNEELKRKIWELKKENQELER

4H780-bA = biological target: T27, 4H780-bA
T27 chain: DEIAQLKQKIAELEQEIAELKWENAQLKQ

4H797-bA = biological target: T28, 4H797-bA
T28 chain: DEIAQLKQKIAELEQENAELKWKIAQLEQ

4H683-bA = biological target: T29, 4H683-bA
T29 chain: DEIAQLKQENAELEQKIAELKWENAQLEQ

4H1831-bA = biological target: T30, 4H1831-bA
T30 chain: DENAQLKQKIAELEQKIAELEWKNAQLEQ

4H3010-bA = biological target: T31, 4H3010-bA
T31 chain: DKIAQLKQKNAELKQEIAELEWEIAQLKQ

4H2702-bA = biological target: T32, 4H2702-bA
T32 chain: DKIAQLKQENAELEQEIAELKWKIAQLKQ

4H575-bA = biological target: T33, 4H575-bA
T33 chain: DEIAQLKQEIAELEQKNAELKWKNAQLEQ

4H2586-bA = biological target: T34, 4H2586-bA
T34 chain: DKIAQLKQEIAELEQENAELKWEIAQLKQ

4H3427-bA = biological target: T35, 4H3427-bA
T35 chain: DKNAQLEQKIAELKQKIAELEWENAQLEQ

4H2627-bA = biological target: T36, 4H2627-bA
T36 chain: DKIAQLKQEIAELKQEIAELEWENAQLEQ

4H3926-bA = biological target: T37, 4H3926-bA
T37 chain: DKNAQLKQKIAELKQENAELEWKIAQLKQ

4H968-bA = biological target: T38, 4H968-bA
T38 chain: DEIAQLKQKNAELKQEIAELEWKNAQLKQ

4H170-bA = biological target: T39, 4H170-bA
T39 chain: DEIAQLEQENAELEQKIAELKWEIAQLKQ

4H4073-bA = biological target: T40, 4H4073-bA
T40 chain: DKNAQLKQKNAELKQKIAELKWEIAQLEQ

4H855-bA = biological target: T41, 4H855-bA
T41 chain: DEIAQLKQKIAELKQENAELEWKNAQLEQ

4H346-bA = biological target: T42, 4H346-bA
T42 chain: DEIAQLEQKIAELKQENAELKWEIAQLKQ

4H953-bA = biological target: T43, 4H953-bA
T43 chain: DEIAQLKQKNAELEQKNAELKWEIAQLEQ

4H457-bA = biological target: T44, 4H457-bA
T44 chain: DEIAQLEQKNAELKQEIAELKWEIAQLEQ

4H918-bA = biological target: T45, 4H918-bA
T45 chain: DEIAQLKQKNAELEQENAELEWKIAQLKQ

4H2673-bA = biological target: T46, 4H2673-bA
T46 chain: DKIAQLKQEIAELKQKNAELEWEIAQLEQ

4H754-bA = biological target: T47, 4H754-bA
T47 chain: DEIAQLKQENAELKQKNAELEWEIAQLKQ

4H3112-bA = biological target: T48, 4H3112-bA
T48 chain: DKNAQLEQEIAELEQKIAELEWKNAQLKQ

4H3961-bH = biological target: T49, 4H3961-bH
T49 chain: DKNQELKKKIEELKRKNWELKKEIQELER

4H2745-bH = biological target: T50, 4H2745-bH
T50 chain: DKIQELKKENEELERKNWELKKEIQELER

4H344-bH = biological target: T51, 4H344-bH
T51 chain: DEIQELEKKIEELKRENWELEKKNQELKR

4H3907-bH = biological target: T52, 4H3907-bH
T52 chain: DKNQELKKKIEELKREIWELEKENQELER

4H363-bH = biological target: T53, 4H363-bH
T53 chain: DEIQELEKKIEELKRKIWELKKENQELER

4H470-bH = biological target: T54, 4H470-bH
T54 chain: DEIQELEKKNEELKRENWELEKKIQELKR

4H906-bA = biological target: T55, 4H906-bA
T55 chain: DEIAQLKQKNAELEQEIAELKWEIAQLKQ

4H626-bA = biological target: T56, 4H626-bA
T56 chain: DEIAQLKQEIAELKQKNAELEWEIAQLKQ

P1A-bH = biological target: T57, P1A-bH
T57 chain: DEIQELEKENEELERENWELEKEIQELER

4H591-bA = biological target: T58, 4H591-bA
T58 chain: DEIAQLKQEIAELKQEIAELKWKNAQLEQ

B1: 4H170-bN (peptide)
chain: DEIQQLEQENQELEQKIQELKWEIQELKQ
interaction score (4H1831-bN): -1.26 | interaction score (4H3427-bN): -0.458 | interaction score (4H4073-bN): 1.61 | interaction score (4H780-bN): -0.283 | interaction score (4H457-bN): -0.694 | interaction score (4H968-bN): 1.15 | interaction score (4H170-bN): 0.334 | interaction score (4H2586-bN): -1.86 | interaction score (4H683-bN): -0.329 | interaction score (4H918-bN): -0.811 | interaction score (4H346-bN): -0.772 | interaction score (4H3926-bN): 0.153 | interaction score (4H797-bN): -0.668 | interaction score (4H3010-bN): 2.14 | interaction score (4H2702-bN): 1.32 | interaction score (4H2627-bN): -1.42 | interaction score (4H2673-bN): -0.742 | interaction score (4H855-bN): 0.202 | interaction score (4H754-bN): -0.104 | interaction score (4H953-bN): -1.71 | interaction score (4H575-bN): 0.401 | interaction score (4H3112-bN): 0.507

B2: 4H2944-bH (peptide)
chain: DKIQELKKKIEELKRKNWELKKKNQELKR
interaction score (4H2944-bH): -0.179 | interaction score (4H342-bH): 0.551 | interaction score (4H48-bH): 0.638 | interaction score (4H491-bH): -0.773

B3: 4H170-bA (peptide)
chain: DEIAQLEQENAELEQKIAELKWEIAQLKQ
interaction score (4H780-bA): -0.413 | interaction score (4H797-bA): -0.00525 | interaction score (4H683-bA): -0.581 | interaction score (4H1831-bA): -1.05 | interaction score (4H3010-bA): 2.15 | interaction score (4H2702-bA): 2.21 | interaction score (4H575-bA): -0.482 | interaction score (4H2586-bA): -0.588 | interaction score (4H3427-bA): 0.122 | interaction score (4H2627-bA): 1.23 | interaction score (4H3926-bA): 1.67 | interaction score (4H968-bA): 2.27 | interaction score (4H170-bA): 0.744 | interaction score (4H4073-bA): 1.89 | interaction score (4H855-bA): -0.225 | interaction score (4H346-bA): -1.19 | interaction score (4H953-bA): 0.253 | interaction score (4H457-bA): 1.56 | interaction score (4H918-bA): 0.927 | interaction score (4H2673-bA): 1.01 | interaction score (4H754-bA): -0.923 | interaction score (4H3112-bA): -0.374

B4: 4H2745-bH (peptide)
chain: DKIQELKKENEELERKNWELKKEIQELER
interaction score (4H3961-bH): -0.688 | interaction score (4H2745-bH): -0.337 | interaction score (4H344-bH): -0.814 | interaction score (4H3907-bH): -0.566 | interaction score (4H363-bH): -0.763 | interaction score (4H470-bH): 1.22

B5: 4H591-bA (peptide)
chain: DEIAQLKQEIAELKQEIAELKWKNAQLEQ
interaction score (4H906-bA): -1.23 | interaction score (4H626-bA): -1.82 | interaction score (P1A-bH): 0.0694 | interaction score (4H591-bA): 1.45
